Data from patent US20260234220A1 (OSPEDALE SAN RAFFAELE S R L, published 2026).

Legend:
Test in all cases: immunofluorescence on infected Vero E6 cells
[1] = biological target: T1, spike protein of SARS-CoV-2 Delta clinical isolate (hCoV-19/Italy/LOM-UniSR12/2021; GISAID EPI_ISL_4198505) (SARS-CoV-2, UniProt P0DTC2 14-1273)
T1 construct: whole, on cells

[2] = biological target: T2, spike protein of SARS-CoV-2 B.1.1.7 (Alpha) clinical isolate (19/Italy/LOM-UniSR7/2021); GISAID … (SARS-CoV-2, UniProt P0DTC2 14-1273)
T2 construct: whole, on cells

[3] = biological target: T3, spike protein of SARS-CoV-2 P.1 (Gamma) clinical isolate (hCoV-19/Italy/LOM-UniSR8/2021); GISAID … (SARS-CoV-2, UniProt P0DTC2 14-1273)
T3 construct: whole, on cells

Measured: binding result

B1: Fab BS.70 (Fab, V domains shown)
VH: LESGGGVVQPGTSLRLSCAASGFTFNNFGMHWVRQAPGKGLEWVAMISYEGSKDFYADSVKGRFTISKDHARNTVYLQMNSLRAEDTAEYYCAKDKAIFMISAGRTLDFWGQGTLVTVSS
VL: ELVMTQSPSSLSASVGDRVTITCRASQNIGIYLNWYQQKPGKAPKLLIYAASSLQNGVPSRFSGSGSGTDFTLTISTLQPEDFATYWCQQGYSTPLTFGGGTKVEIR
binds: all assays above
